# Data as given in US10174359 (JAPANESE FOUNDATION FOR CANCER RESEARCH, dated 2019).
# Molecular target: T1, myc-tagged mouse separase, wild-type (WT) (mouse, UniProt P60330 1-2118)
# T1 construct: Studied in HeLa cell extracts by co-immunoprecipitation and immunoblot; also called wild-type separase; wild-type mouse separase; not shown: myc tag
# Assay: immunoprecipitation with securin from anaphase cell extract, immunoblot for separase-myc (FIG. 7A)
# Method: Typically, the cell extracts are mixed with […] of agarose beads conjugated to anti-myc tag (manufactured by MBL), or protein A beads (manufactured by Bio-RAD) coupled to the desired antibodies, and incubated for 2 hr at 4° C., then washed three times with IP buffer and three times with TBS-T (150 mM sodium chloride, 20 mM Tris pH 8.0, 0.05% (v/v) Tween 20) and then subjected to analysis.
# In the wild-type mouse separase replaced cell and SA mutant mouse separase replaced cell, the cell cycle arrest by Monastrol, was cancelled. Forty minutes after cancellation of the cell cycle arrest by Monastrol a cell population enriched in anaphase cells was prepared. Then, a cell extract was obtained and subjected to immunoprecipitation with cyclin B1 and securin to analyze the presence or absence of separase-myc. As a result, separase having a small molecular weight, i.e., cleaved separase, is observed.
# T1 sequence (P60330 whole entry): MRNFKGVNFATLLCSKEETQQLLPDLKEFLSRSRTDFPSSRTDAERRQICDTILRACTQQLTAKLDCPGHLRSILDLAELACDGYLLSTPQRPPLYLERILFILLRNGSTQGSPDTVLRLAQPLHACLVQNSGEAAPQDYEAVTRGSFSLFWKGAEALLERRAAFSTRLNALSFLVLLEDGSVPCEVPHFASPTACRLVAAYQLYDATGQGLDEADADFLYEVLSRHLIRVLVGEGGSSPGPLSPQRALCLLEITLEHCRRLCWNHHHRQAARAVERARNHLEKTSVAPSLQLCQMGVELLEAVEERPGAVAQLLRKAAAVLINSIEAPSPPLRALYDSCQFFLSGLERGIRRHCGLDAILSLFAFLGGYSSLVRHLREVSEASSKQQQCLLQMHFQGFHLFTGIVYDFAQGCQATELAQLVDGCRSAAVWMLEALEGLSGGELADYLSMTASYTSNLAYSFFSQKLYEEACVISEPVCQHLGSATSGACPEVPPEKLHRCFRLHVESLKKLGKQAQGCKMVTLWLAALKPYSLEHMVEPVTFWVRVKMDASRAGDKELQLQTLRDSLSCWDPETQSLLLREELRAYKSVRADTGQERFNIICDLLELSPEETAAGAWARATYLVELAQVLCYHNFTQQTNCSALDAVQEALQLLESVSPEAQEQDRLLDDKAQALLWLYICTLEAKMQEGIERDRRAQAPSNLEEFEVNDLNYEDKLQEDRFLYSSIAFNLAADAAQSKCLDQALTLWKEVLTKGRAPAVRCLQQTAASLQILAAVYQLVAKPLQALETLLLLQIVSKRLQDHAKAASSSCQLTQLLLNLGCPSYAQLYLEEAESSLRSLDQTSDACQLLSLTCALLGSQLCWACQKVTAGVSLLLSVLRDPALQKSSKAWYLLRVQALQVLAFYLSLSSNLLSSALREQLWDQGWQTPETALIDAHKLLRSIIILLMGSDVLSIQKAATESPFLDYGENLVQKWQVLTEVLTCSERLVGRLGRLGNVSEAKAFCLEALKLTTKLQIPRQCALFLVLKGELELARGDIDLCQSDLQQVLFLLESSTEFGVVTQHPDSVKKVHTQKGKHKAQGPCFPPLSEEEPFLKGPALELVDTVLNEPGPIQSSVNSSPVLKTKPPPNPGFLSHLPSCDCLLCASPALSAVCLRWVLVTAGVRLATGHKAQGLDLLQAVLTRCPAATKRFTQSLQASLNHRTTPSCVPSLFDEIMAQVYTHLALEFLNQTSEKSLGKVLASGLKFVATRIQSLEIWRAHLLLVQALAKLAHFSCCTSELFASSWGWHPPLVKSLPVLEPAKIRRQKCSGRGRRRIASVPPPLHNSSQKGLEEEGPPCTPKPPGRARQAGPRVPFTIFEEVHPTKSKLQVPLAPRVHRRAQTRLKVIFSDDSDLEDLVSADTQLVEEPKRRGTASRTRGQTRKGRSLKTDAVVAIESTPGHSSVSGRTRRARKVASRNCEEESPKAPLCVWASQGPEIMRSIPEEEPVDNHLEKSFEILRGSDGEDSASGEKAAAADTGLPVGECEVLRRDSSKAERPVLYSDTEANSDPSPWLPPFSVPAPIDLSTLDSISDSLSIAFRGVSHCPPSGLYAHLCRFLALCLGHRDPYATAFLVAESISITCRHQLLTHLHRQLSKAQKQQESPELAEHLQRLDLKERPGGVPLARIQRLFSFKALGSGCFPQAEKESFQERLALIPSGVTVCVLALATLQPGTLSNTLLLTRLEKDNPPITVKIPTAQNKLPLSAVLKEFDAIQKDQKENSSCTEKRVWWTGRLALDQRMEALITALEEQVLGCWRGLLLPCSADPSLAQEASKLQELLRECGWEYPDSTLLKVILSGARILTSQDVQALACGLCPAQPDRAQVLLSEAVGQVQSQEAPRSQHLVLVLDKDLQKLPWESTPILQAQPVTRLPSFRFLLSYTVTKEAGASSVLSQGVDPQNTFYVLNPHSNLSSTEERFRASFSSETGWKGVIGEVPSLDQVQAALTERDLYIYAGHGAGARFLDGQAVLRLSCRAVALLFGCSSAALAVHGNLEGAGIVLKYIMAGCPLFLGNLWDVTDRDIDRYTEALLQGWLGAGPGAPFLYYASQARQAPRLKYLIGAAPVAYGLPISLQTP
binder,measurement,value
"securin (other, UniProt O95997 2-202, looked up, Endogenous protein in HeLa cell extracts) ATLIYVDKENGEPGTRVVAKDGLKLGSGPSIKALDGRSQVSTPRFGKTFDAPPALPKATRKALGTVNRATEKSVKTKGPLKQKQPSFSAKKMTEKTVKAKSSVPASDDAYPEIEKFFPFNPLDFESFDLPEEHQIAHLPLSGVPLMILDEERELEKLFQLGPPSPVKMPSPPWESNLLQSPSSILSTLDVELPPVCCDIDI",binding result,binds
